Reference: US20100286374A1

Target: huIgG1 Fc (dummy) K409D&K392D (human) [IgG part: P0DOX5]
Test: co-expression in 293-6E with M315 scFv-Fc D399′K; E357′K, non-reduced SDS-PAGE (FIG. 10), band density

percentage of Dummy Fc Homodimer yield: 20.9%
Substance: huIgG1 Fc (dummy) K409D&K392D (from UniProt P0DOX5 218-449)
